This note sets out measurements from IntAct's records for PubMed 19534813.

B1: Twist-related protein 1 (Homo sapiens), Q15672 (parent)
chain: MMQDVSSSPVSPADDSLSNSEEEPDRQQPPSGKRGGRKRRSSRRSAGGGAGPGGAAGGGVGGGDEPGSPAQGKRGKKSAGCGGGGGAGGGGGSSSGGGSPQSYEELQTQRVMANVRERQRTQSLNEAFAALRKIIPTLPSDKLSKIQTLKLAARYIDFLYQVLQSDELDSKMASCSYVAHERLSYAFSVWRMEGAWSMSASH

The assay covers variants of B1. To be noted: with itf2_human TCF4, P15884.
itf2_human TCF4, P15884, sequence (P15884 whole entry): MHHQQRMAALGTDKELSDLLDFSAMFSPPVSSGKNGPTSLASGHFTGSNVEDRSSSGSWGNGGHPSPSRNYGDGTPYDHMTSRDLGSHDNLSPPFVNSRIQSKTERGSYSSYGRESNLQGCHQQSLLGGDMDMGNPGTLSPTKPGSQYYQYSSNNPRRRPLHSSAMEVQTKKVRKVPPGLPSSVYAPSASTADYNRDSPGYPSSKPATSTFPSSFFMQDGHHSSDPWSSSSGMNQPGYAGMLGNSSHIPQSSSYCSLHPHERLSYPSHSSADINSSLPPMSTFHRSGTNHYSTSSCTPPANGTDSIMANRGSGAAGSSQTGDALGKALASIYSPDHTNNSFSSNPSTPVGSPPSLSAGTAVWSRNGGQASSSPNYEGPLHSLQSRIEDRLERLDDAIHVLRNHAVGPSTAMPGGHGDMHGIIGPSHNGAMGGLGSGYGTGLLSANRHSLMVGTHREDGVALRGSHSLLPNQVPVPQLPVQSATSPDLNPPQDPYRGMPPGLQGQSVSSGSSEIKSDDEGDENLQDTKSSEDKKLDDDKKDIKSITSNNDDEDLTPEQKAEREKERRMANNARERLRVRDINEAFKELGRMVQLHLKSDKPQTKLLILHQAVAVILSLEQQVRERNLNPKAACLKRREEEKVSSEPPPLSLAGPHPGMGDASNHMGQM
In the case of K73R, the “effect of a mutation on the interaction” value was “with no effect”. The result for K77R reads “with no effect”; that for K38R, “with no effect”.
